In article PMC3949746:

Columns and labels:
[1] = molecular target: ribulose-1,5-bisphosphate carboxylase/oxygenase (RuBisCO) large subunit of Serratia sp. ISTD04 (Serratia sp. ISTD04 (endogenous)); assay: SEC; native RuBisCO purified from Serratia sp. ISTD04, Superdex 200 FPLC gel filtration in buffer A (200 mM Tris-Cl, 10 mM MgCl2, 132 mM KHCO3, 10 mM DTT, ATP, pH 7.8), 0.5 ml/min, 4°C; subunits of the eluted enzyme shown by SDS-PAGE (12%)
[2] = molecular target: ribulose-1,5-bisphosphate carboxylase/oxygenase (RuBisCO) small subunit of Serratia sp. ISTD04 (Serratia sp. ISTD04 (endogenous)); assay: as above

| stoichiometry N [1] | stoichiometry N [2] | Substance |
| --- | --- | --- |
| 8 |  | ribulose-1,5-bisphosphate carboxylase/oxygenase (RuBisCO) large subunit of Serratia sp. ISTD04 (natural protein) |
|  | 8 | ribulose-1,5-bisphosphate carboxylase/oxygenase (RuBisCO) small subunit of Serratia sp. ISTD04 (natural protein) |
